Experimental data: PMC11446282
Like-named read-outs stand apart in the source and are kept apart here. One block for each molecule: values may come before it.

Legend:
[1] = tested on: B55α interactors; test: MS analysis of B55α WT, V228A, I284A, S287A and D340A immunopurifications; type: binding, human; conditions: log2 ratio of interactor abundance, 4 replicates each, normalised to bait B55α; for log2_ratio_D340_WT: B55α D340A vs WT immunopurification; for log2_ratio I284_WT: B55α I284A vs WT immunopurification; for log2_ratio S287_WT: B55α S287A vs WT immunopurification; for log2_ratio V228_WT: B55α V228A vs WT immunopurification
Procedure, shortened: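 YFP-tagged B55α wild type or point mutants transiently expressed in HeLa cells for 24 h, then pulled down with GFP-Trap at 4 °C in 50 mM Tris pH 7.5/50 mM NaCl/0.1% NP-40 buffer and analysed by LC-MS/MS. Peptides filtered to <1% FDR, quantified by iBAQ with bait abundance normalized across samples; two-tailed Student's t test.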

[2] = tested on: PP2A-B55 isoforms; type: binding, human; conditions: MS, n = 4; for log2_ratio WT_M: YFP-PME1 wild-type versus mutant IP; for log2_ratio WT_C: wild-type versus control IP
Description: Standard cloning techniques were used throughout. Point mutations were introduced by whole plasmid polymerase chain reaction (PCR). All constructs were fully sequenced. Synthetic DNA was purchased from GeneArt, Life Technologies and cloned into pcDNA5/FRT/TO (Invitrogen) expression vector containing YFP, resulting in the indicated YFP fusion proteins. These constructs were transiently transfected into HeLa cells 24 hours before harvesting cells. Cells were lysed in lysis buffer [50 mM tris-HCl (pH 7.5), 50 mM NaCl, 1 mM EDTA, 1 mM […], and 0.1% NP-40]. Complexes were immunoprecipitated at 4°C in lysis buffer with green fluorescent protein (GFP)–Trap (ChromoTek) and washed in lysis buffer. Precipitated protein complexes were washed three times in lysis buffer, eluted in 2× SDS sample buffer, and subjected to Western blotting or MS as indicated.
Pull-downs were analyzed on a Q-Exactive Plus quadrupole or Fusion Orbitrap Lumos mass spectrometer (Thermo Fisher Scientific) equipped with Easy-nLC 1000 or […] (Thermo Fisher Scientific) and nanospray source (Thermo Fisher Scientific). Peptides were resuspended in 5% methanol/1% formic acid and loaded onto a trap column [1 cm in length, 100 μm in inner diameter, ReproSil, C18 AQ 5-μm 120-Å pore (Dr. Maisch, Ammerbuch, Germany)] vented to waste via a micro-tee and eluted across a fritless analytical resolving column (35 cm in length, 100 μm in inner diameter, ReproSil, C18 AQ 3-μm 120-Å pore) pulled in-house (Sutter P-2000, Sutter Instruments, San Francisco, CA) with a 45-min gradient of 5 to 30% liquid chromatography–MS (LC-MS) buffer B (LC-MS buffer A: 0.0625% formic acid and 3% acetonitrile (ACN); LC-MS buffer B: 0.0625% formic acid, 95% ACN Q-Exactive Plus quadrupole or 0.0625% formic acid and 80% ACN Fusion Orbitrap Lumos mass).
Static modifications included carbamidomethylcysteine, and variable modifications included oxidized methionine and STY phosphorylation. Searches were filtered using orthogonal measures including mass measurement accuracy (±3 parts per million), Xcorr for charges from +2 to +4, and dCn targeting a <1% false discovery rate at the peptide level. Quantification of LC-MS/MS spectra was performed using MassChroQ ([57]) and the iBAQ method ([58]). All data were analyzed using R 4.3.0. Missing values were imputed from a normal distribution. To be included in further analysis, proteins had to be identified with more than 1 total peptide and quantified in two or more replicates of each sample. In each dataset, the abundance of the protein of interest was normalized to be equal across all samples. Statistical analyses were done using a two-tailed Student’s t test.

[3] = prey 2ABA_HUMAN (PPP2R2A, B55 alpha)
[4] = prey 2ABB_HUMAN (PPP2R2B, B55 beta)
[5] = prey 2ABD_HUMAN (PPP2R2D, B55 delta)
[6] = prey 2ABG_HUMAN (PPP2R2C, B55 gamma)

B1: BAG2_HUMAN (protein, UniProt O95816 2-211, looked up)
BAG family molecular …: AQAKINAKANEGRFCRSSSMADRSSRLLESLDQLELRVEALREAATAVEQEKEILLEMIHSIQNSQDMRQISDGEREELNLTANRLMGRTLTVEVSVETIRNPQQQESLKHATRIIDEVVNKFLDDLGNAKSHLMSLYSACSSEVPHGPVDQKFQSIVIGCALEDQKKIKRRLETLLRNIENSDKAIKLLEHSKGAGSKTLQQNAESRFN
log2_ratio_D340_WT [1]: -0.69
log2_ratio I284_WT [1]: -0.54
log2_ratio S287_WT [1]: 0.19
log2_ratio V228_WT [1]: -0.43

B2: PDE8B_HUMAN (protein, UniProt O95263 1-885, looked up)
High affinity cAMP-specific …: MGCAPSIHVSQSGVIYCRDSDESSSPRQTTSVSQGPAAPLPGLFVQTDAADAIPPSRASGPPSVARVRRARTELGSGSSAGSAAPAATTSRGRRRHCCSSAEAETQTCYTSVKQVSSAEVRIGPMRLTQDPIQVLLIFAKEDSQSDGFWWACDRAGYRCNIARTPESALECFLDKHHEIIVIDHRQTQNFDAEAVCRSIRATNPSEHTVILAVVSRVSDDHEEASVLPLLHAGFNRRFMENSSIIACYNELIQIEHGEVRSQFKLRACNSVFTALDHCHEAIEITSDDHVIQYVNPAFERMMGYHKGELLGKELADLPKSDKNRADLLDTINTCIKKGKEWQGVYYARRKSGDSIQQHVKITPVIGQGGKIRHFVSLKKLCCTTDNNKQIHKIHRDSGDNSQTEPHSFRYKNRRKESIDVKSISSRGSDAPSLQNRRYPSMARIHSMTIEAPITKVINIINAAQENSPVTVAEALDRVLEILRTTELYSPQLGTKDEDPHTSDLVGGLMTDGLRRLSGNEYVFTKNVHQSHSHLAMPITINDVPPCISQLLDNEESWDFNIFELEAITHKRPLVYLGLKVFSRFGVCEFLNCSETTLRAWFQVIEANYHSSNAYHNSTHAADVLHATAFFLGKERVKGSLDQLDEVAALIAATVHDVDHPGRTNSFLCNAGSELAVLYNDTAVLESHHTALAFQLTVKDTKCNIFKNIDRNHYRTLRQAIIDMVLATEMTKHFEHVNKFVNSINKPMAAEIEGSDCECNPAGKNFPENQILIKRMMIKCADVANPCRPLDLCIEWAGRISEEYFAQTDEEKRQGLPVVMPVFDRNTCSIPKSQISFIDYFITDMFDAWDAFAHLPALMQHLADNYKHWKTLDDLKCKSLRLPSDS
log2_ratio_D340_WT [1]: 3.81
log2_ratio I284_WT [1]: 0.83
log2_ratio S287_WT [1]: 4.46
log2_ratio V228_WT [1]: 5.00

B3: OFD1_HUMAN (protein, UniProt O75665 1-1012, looked up)
Centriole and centriolar …: MMAQSNMFTVADVLSQDELRKKLYQTFKDRGILDTLKTQLRNQLIHELMHPVLSGELQPRSISVEGSSLLIGASNSLVADHLQRCGYEYSLSVFFPESGLAKEKVFTMQDLLQLIKINPTSSLYKSLVSGSDKENQKGFLMHFLKELAEYHQAKESCNMETQTSSTFNRDSLAEKLQLIDDQFADAYPQRIKFESLEIKLNEYKREIEEQLRAEMCQKLKFFKDTEIAKIKMEAKKKYEKELTMFQNDFEKACQAKSEALVLREKSTLERIHKHQEIETKEIYAQRQLLLKDMDLLRGREAELKQRVEAFELNQKLQEEKHKSITEALRRQEQNIKSFEETYDRKLKNELLKYQLELKDDYIIRTNRLIEDERKNKEKAVHLQEELIAINSKKEELNQSVNRVKELELELESVKAQSLAITKQNHMLNEKVKEMSDYSLLKEEKLELLAQNKLLKQQLEESRNENLRLLNRLAQPAPELAVFQKELRKAEKAIVVEHEEFESCRQALHKQLQDEIEHSAQLKAQILGYKASVKSLTTQVADLKLQLKQTQTALENEVYCNPKQSVIDRSVNGLINGNVVPCNGEISGDFLNNPFKQENVLARMVASRITNYPTAWVEGSSPDSDLEFVANTKARVKELQQEAERLEKAFRSYHRRVIKNSAKSPLAAKSPPSLHLLEAFKNITSSSPERHIFGEDRVVSEQPQVGTLEERNDVVEALTGSAASRLRGGTSSRRLSSTPLPKAKRSLESEMYLEGLGRSHIASPSPCPDRMPLPSPTESRHSLSIPPVSSPPEQKVGLYRRQTELQDKSEFSDVDKLAFKDNEEFESSFESAGNMPRQLEMGGLSPAGDMSHVDAAAAAVPLSYQHPSVDQKQIEEQKEEEKIREQQVKERRQREERRQSNLQEVLERERRELEKLYQERKMIEESLKIKIKKELEMENELEMSNQEIKDKSAHSENPLEKYMKIIQQEQDQESADKSSKKMVQEGSLVDTLQSSDKVESLTGFSHEELDDSW
log2_ratio_D340_WT [1]: 2.04
log2_ratio I284_WT [1]: 1.52
log2_ratio S287_WT [1]: 0.73
log2_ratio V228_WT [1]: -2.22

log2_ratio WT_M ([2]; prey 2AAA_HUMAN (PPP2R1A)): 1.05
log2_ratio WT_C ([2]; prey 2AAA_HUMAN (PPP2R1A)): 8.03
log2_ratio WT_M ([2]; prey 2AAB_HUMAN (PPP2R1B)): 1.40
log2_ratio WT_C ([2]; prey 2AAB_HUMAN (PPP2R1B)): 6.19
log2_ratio WT_M [2, 3]: 8.62
log2_ratio WT_C [2, 3]: 8.40
log2_ratio WT_M [2, 4]: 4.68
log2_ratio WT_C [2, 4]: 4.02
log2_ratio WT_M [2, 5]: 5.74
log2_ratio WT_C [2, 5]: 6.24
log2_ratio WT_M [2, 6]: 6.08
log2_ratio WT_C [2, 6]: 5.83
log2_ratio WT_M ([2]; prey PP2AA_HUMAN (PPP2CA)): 0.66
log2_ratio WT_C ([2]; prey PP2AA_HUMAN (PPP2CA)): 9.04
log2_ratio WT_M ([2]; prey PP2AB_HUMAN (PPP2CB)): 0.69
log2_ratio WT_C ([2]; prey PP2AB_HUMAN (PPP2CB)): 8.00
B4: PME1 wt (protein, UniProt Q9Y570 2-386, looked up)
Protein phosphatase …: SALEKSMHLGRLPSRPPLPGSGGSQSGAKMRMGPGRKRDFSPVPWSQYFESMEDVEVENETGKDTFRVYKSGSEGPVLLLLHGGGHSALSWAVFTAAIISRVQCRIVALDLRSHGETKVKNPEDLSAETMAKDVGNVVEAMYGDLPPPIMLIGHSMGGAIAVHTASSNLVPSLLGLCMIDVVEGTAMDALNSMQNFLRGRPKTFKSLENAIEWSVKSGQIRNLESARVSMVGQVKQCEGITSPEGSKSIVEGIIEEEEEDEEGSESISKRKKEDDMETKKDHPYTWRIELAKTEKYWDGWFRGLSNLFLSCPIPKLLLLAGVDRLDKDLTIGQMQGKFQMQVLPQCGHAVHEDAPDKVAEAVATFLIRHRFAEPIGGFQCVFPGC
